Measurements: IntAct's records for PubMed 17070805

B1: RING1 and YY1-binding protein (Homo sapiens), Q8N488 (parent)
chain: MTMGDKKSPTRPKRQAKPAADEGFWDCSVCTFRNSAEAFKCSICDVRKGTSTRKPRINSQLVAQQVAQQYATPPPPKKEKKEKVEKQDKEKPEKDKEISPSVTKKNTNKKTKPKSDILKDPPSEANSIQSANATTKTSETNHTSRPRLKNVDRSTAQQLAVTVGNVTVIITDFKEKTRSSSTSSSTVTSSAGSEQQNQSSSGSESTDKGSSRSSTPKGDMSAVNDESF

Variants of: B1
Conditions: with ubc_human UBC

Variant | effect of a mutation on the interaction
MTMGDKKSPTRPKRQAKPAADEGFWDCSVCAARNSAEAFKCSICDVRKGTSTRKPRINSQLVAQQVAQQYATPPPPKKEKKEKVEKQDKEKPEKDKEISPSVTKKNTNKKTKPKSDILKDPPSEANSIQSANATTKTSETNHTSRPRLKNVDRSTAQQLAVTVGNVTVIITDFKEKTRSSSTSSSTVTSSAGSEQQNQSSSGSESTDKGSSRSSTPKGDMSAVNDESF [T31A;F32A] | disrupting interaction

Variants of: B1
Conditions: with ubc_human UBC
Remark: another data set of the same source

Variant | effect of a mutation on the interaction
MTMGDKKSPTRPKRQAKPAADEGFWDCSVCAARNSAEAFKCSICDVRKGTSTRKPRINSQLVAQQVAQQYATPPPPKKEKKEKVEKQDKEKPEKDKEISPSVTKKNTNKKTKPKSDILKDPPSEANSIQSANATTKTSETNHTSRPRLKNVDRSTAQQLAVTVGNVTVIITDFKEKTRSSSTSSSTVTSSAGSEQQNQSSSGSESTDKGSSRSSTPKGDMSAVNDESF [T31A;F32A] | disrupting interaction

Variants of: B1
Conditions: with RING1, Q06587-2
Sequence of RING1, Q06587-2 (Q06587 30-406): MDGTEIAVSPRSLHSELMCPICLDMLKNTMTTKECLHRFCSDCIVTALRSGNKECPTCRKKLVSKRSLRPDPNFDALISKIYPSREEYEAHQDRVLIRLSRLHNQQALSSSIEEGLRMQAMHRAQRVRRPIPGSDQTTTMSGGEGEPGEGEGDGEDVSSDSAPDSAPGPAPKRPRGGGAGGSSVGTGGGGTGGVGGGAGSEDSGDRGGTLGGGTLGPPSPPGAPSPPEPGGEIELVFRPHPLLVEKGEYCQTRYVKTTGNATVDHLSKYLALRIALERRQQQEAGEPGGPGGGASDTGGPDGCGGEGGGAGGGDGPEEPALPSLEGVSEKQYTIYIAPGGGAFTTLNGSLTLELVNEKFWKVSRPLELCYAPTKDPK

Variant | effect of a mutation on the interaction
MTMGDKKSPTRPKRQAKPAADEGFWDCSVCAARNSAEAFKCSICDVRKGTSTRKPRINSQLVAQQVAQQYATPPPPKKEKKEKVEKQDKEKPEKDKEISPSVTKKNTNKKTKPKSDILKDPPSEANSIQSANATTKTSETNHTSRPRLKNVDRSTAQQLAVTVGNVTVIITDFKEKTRSSSTSSSTVTSSAGSEQQNQSSSGSESTDKGSSRSSTPKGDMSAVNDESF [T31A;F32A] | disrupting interaction
